Laboratory results: PMC6823378, “Clathrin light chain A drives selective myosin VI recruitment to clathrin-coated pits under membrane tension” (Nature Communications, 2019)
Values belong to the molecule of their own block, whether it stands above or below them. Ends that are not written are not given here. * marks the point of attachment. 5FAM = O=C1OC2(c3ccc(O)cc3Oc3cc(O)ccc32)c2ccc(C(=O)*)cc21

B2: myosin VI^998–1131 of the long isoform (myosin VI_(long)), cleaved from GST and purified (domain or fragment, human, UniProt Q9UM54 998-1131, looked up)
chain: QQQAVLEQERRDRELALRIAQSEAELISDEAQADLALRRSLDSYPVSKNDGTRPKMTPEQMAKEMSEFLSRGPAVLATKAAAGTKKYDLSKWKYAELRDTINTSCDIELLAACREEFHRRLKVYHAWKSKNKKR
notes: source: E. coli Rosetta (DE3), GST fusion cleaved with PreScission Protease, purified (ion exchange)
B4: CLCa full length, bacterially produced (ITC; reconstitution of cages) (natural protein, human, UniProt P09496 1-248, looked up)
chain: MAELDPFGAPAGAPGGPALGNGVAGAGEEDPAAAFLAQQESEIAGIENDEAFAILDGGAPGPQPHGEPPGGPDAVDGVMNGEYYQESNGPTDSYAAISQVDRLQSEPESIRKWREEQMERLEALDANSRKQEAEWKEKAIKELEEWYARQDEQLQKTKANNRVADEAFYKQPFADVIGYVTNINHPCYSLEQAAEEAFVNDIDESSPGTEWERVARLCDFNPKSSKQAKDVSRMRSVLISLKQAPLVH
notes: clathrin light chain A (CLCa), human; Cleavage from GST is told for the cage reconstitution; also called CLCa FL; CLCa WT; source: bacterially produced and cleaved from GST, purified
B6: myosin VI^1050–1131 of the long isoform, cleaved from GST and purified (domain or fragment, human, UniProt Q9UM54 1050-1131, looked up)
chain: RPKMTPEQMAKEMSEFLSRGPAVLATKAAAGTKKYDLSKWKYAELRDTINTSCDIELLAACREEFHRRLKVYHAWKSKNKKR
notes: 15N- or 13C,15N-labelled in some NMR samples; also called Myo6; source: E. coli Rosetta (DE3) or BL21 (DE3), GST fusion cleaved with PreScission Protease, purified (ion exchange or SEC)

Tests used:
[1] = target: 5-carboxyfluorescein (5-FAM)-conjugated CLCa peptide 46–61 (human) (UniProt P09496); test: fluorescence polarisation; 20–50 nM 5-FAM-conjugated CLCa peptide titrated with purified myosin VI fragment from ~150 µM, 22 °C, 384-well plate
[2] = target: myosin VI^1050–1131 of the long isoform, cleaved from GST and purified (UniProt Q9UM54); test: GST pull-down, Coomassie, band quantitation; conditions: parent: est. 23; read off a plot
Chain of myosin VI^1050–1131 of the long isoform, cleaved from GST and purified (UniProt Q9UM54) (Q9UM54 whole entry, looked up, the tested form may be a part, canonical isoform): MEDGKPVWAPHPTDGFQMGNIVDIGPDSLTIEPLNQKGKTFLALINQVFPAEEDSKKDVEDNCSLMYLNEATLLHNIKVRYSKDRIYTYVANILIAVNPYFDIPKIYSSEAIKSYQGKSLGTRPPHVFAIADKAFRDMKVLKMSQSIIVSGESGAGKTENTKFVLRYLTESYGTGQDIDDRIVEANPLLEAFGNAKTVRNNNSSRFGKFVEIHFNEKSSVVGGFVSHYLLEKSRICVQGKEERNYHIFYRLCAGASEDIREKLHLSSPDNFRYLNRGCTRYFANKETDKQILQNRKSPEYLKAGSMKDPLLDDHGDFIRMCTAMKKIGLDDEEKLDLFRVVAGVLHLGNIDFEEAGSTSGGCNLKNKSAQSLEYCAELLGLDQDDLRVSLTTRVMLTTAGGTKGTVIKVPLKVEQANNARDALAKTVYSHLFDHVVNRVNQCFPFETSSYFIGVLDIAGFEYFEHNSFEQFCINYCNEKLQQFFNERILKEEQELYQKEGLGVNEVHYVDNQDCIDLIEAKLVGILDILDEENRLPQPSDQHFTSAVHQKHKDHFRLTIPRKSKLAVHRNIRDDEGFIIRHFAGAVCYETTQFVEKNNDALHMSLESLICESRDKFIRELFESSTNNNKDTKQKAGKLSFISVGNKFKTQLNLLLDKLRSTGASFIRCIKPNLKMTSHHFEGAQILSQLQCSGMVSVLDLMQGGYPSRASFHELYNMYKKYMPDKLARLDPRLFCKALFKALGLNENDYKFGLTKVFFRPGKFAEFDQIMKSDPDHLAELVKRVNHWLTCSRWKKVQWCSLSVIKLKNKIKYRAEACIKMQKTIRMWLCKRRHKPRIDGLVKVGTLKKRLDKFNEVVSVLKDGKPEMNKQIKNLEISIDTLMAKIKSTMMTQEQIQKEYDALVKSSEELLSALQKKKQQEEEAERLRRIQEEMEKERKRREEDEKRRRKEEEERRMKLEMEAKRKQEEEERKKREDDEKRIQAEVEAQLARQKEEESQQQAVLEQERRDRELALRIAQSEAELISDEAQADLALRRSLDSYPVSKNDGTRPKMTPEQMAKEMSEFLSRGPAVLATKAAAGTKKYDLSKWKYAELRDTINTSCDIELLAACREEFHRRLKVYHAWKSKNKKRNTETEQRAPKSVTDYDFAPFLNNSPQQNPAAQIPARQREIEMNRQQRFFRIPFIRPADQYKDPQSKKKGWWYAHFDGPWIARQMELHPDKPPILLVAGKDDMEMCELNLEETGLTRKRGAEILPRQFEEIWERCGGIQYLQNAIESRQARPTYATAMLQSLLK

[3] = target: B2; test: pull-down; GST-CLC proteins (1.5 μM) on glutathione sepharose beads incubated 1 h at 4 °C in JS buffer with cleaved and purified myosin VI fragments; SDS-PAGE, Coomassie; conditions: both partners purified
[4] = target: T1, 5-carboxyfluorescein (5-FAM)-conjugated CLCa peptide 51–61 (human, UniProt P09496 51-61, also: 5-FAM conjugated, site not given here); test: fluorescence polarisation; 20–50 nM 5-FAM-conjugated CLCa peptide titrated with purified myosin VI fragment from ~150 µM, 22 °C, 384-well plate; conditions: both partners purified
T1 construct: clathrin light chain A (CLCa), human, amino acids 51–61; source: synthetic peptide (GenScript)
T1 peptide (looked up): AFAILDGGAPG

[5] = target: T2, 5-carboxyfluorescein (5-FAM)-conjugated CLCa peptide 51–66 (human, UniProt P09496 51-66, also: 5-FAM conjugated, site not given here); test: as above; conditions: both partners purified
T2 construct: clathrin light chain A (CLCa), human, amino acids 51–66; source: synthetic peptide (GenScript)
T2 peptide (looked up): AFAILDGGAPGPQPHG

[6] = target: T3, myosin VI^1069–1131 (human, UniProt Q9UM54 1069-1131); test: FP
T3 chain: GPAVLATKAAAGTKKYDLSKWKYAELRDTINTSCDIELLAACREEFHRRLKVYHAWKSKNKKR

[7] = target: B2; test: fluorescence polarisation; 20–50 nM 5-FAM-conjugated CLCa peptide titrated with purified myosin VI fragment from ~150 µM, 22 °C, 384-well plate; conditions: both partners purified
[8] = target: B6; test: as above; conditions: both partners purified
[9] = target: T4, His-Hip1R coiled-coil region (amino acids 346–655) (UniProt O75146 346-655); test: ITC; 380 µM CLCa WT or I54D titrated into 20 µM Hip1R^346–655 or myosin VI^1050–1131 in the cell; 20 mM Tris-HCl pH 8.0, 150 mM NaCl, 2.5% glycerol, 25 °C; one-set-of-sites model; conditions: both partners purified
T4 construct: also called His-Hip1R^346–655; Hip1R^346–655; source: bacterially purified (pRSF-duet)
T4 sequence (looked up): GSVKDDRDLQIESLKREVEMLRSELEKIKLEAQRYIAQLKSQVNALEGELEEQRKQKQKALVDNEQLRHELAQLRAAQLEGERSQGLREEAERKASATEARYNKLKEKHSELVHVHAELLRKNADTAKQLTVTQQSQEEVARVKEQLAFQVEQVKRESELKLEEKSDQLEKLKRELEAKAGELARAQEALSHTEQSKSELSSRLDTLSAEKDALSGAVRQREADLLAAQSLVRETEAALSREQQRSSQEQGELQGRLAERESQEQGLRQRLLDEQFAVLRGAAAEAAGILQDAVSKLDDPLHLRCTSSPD

[10] = target: B6; test: as above; conditions: both partners purified
[11] = target: B4; test: as above; conditions: both partners purified
[12] = target: B6; test: NMR structure; complex of myosin VI^1050–1131 and CLCa^46–61, 221 intermolecular NOEs; 10 °C, 20 mM NaPO4 pH 6.5, 50 mM NaCl, 2 mM DTT; conditions: both partners purified
[13] = target: T5, myosin VI^998–1131 of the long isoform (myosin VI_(long)), cleaved from GST and purified (human, UniProt Q9UM54 998-1131); test: FP
T5 chain: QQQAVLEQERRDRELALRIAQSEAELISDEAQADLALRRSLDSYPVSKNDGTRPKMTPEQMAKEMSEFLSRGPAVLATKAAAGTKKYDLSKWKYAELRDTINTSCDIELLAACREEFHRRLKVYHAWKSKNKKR

Molecule: myosin VI^998–1131 of the short isoform (myosin VI_(short)), cleaved from GST and purified (domain or fragment)
- Kd [1]: 96000 nM

Molecule: GST-CLCa 46–61 WT I54D
- response [2]: 3 % of binding

Molecule: B2
- fold higher affinity of peptide 46–61 than of this peptide [4]: 10 fold
- fold higher affinity of peptide 46–61 than of this peptide [5]: 10 fold

B3: 5-carboxyfluorescein (5-FAM)-conjugated CLCa peptide 46–61 (peptide, UniProt P09496 46-61, looked up)
peptide: 5FAM-IENDEAFAILDGGAPG
notes: clathrin light chain A (CLCa), human, amino acids 46–61; also called CLCa^46–61; source: synthetic peptide (GenScript)
- Kd [6]: 22000 nM
- Kd [7]: 930 nM
- Kd [8]: 400 nM

Molecule: B4
- Kd [9]: 1370 nM
- dH [9]: -9.7 kcal/mol
- stoichiometry N [9]: 1.15 sites
- dH [10]: -11.6 kcal/mol
- stoichiometry N [10]: 0.79 sites

Molecule: B6
- Kd [11]: 90 nM

B7: CLCa^46–61, recombinant, cleaved from GST (for the NMR structure) (peptide, UniProt P09496 46-61, looked up)
peptide: IENDEAFAILDGGAPG
notes: clathrin light chain A (CLCa), human, amino acids 46–61; 13C,15N-labelled in one of the two samples; source: E. coli BL21 (DE3), GST fusion cleaved with PreScission Protease in the presence of myosin VI, purified (SEC)
- binding result [12]: binds

Molecule: AFAILDGGAPG (also: 5-FAM conjugated, site not given here) [5-carboxyfluorescein (5-FAM)-conjugated CLCa peptide 51–61]
- Kd [13]: 22600 nM

Results, then the molecule that gave them:

- difference in binding affinity against the wild type [1]: 2 log-fold
Molecule: myosin VI Y1121A mutant used for FP analysis (domain or fragment)

- binding result [3]: binds
B1: GST-CLCa fragment of amino acids 47–97 (domain or fragment, human, UniProt P09496 47-97, looked up)
chain: ENDEAFAILDGGAPGPQPHGEPPGGPDAVDGVMNGEYYQESNGPTDSYAAI
notes: clathrin light chain A (CLCa), human, amino acids 47–97; also called CLCa 47–97; source: E. coli Rosetta (DE3), on glutathione-sepharose beads

- Kd [9]: 990 nM
- dH [9]: -8.72 kcal/mol
- stoichiometry N [9]: 1.01 sites
B5: CLCa I54D full length (ITC) (natural protein, human, UniProt P09496 1-248, looked up)
chain: MAELDPFGAPAGAPGGPALGNGVAGAGEEDPAAAFLAQQESEIAGIENDEAFADLDGGAPGPQPHGEPPGGPDAVDGVMNGEYYQESNGPTDSYAAISQVDRLQSEPESIRKWREEQMERLEALDANSRKQEAEWKEKAIKELEEWYARQDEQLQKTKANNRVADEAFYKQPFADVIGYVTNINHPCYSLEQAAEEAFVNDIDESSPGTEWERVARLCDFNPKSSKQAKDVSRMRSVLISLKQAPLVH
notes: clathrin light chain A (CLCa), human, I54D

- Kd [13]: 13100 nM
Molecule: AFAILDGGAPGPQPHG (also: 5-FAM conjugated, site not given here) [5-carboxyfluorescein (5-FAM)-conjugated CLCa peptide 51–66]
